Data from publication PMC4678811, “Assembly and dynamics of the U4/U6 di-snRNP by single-molecule FRET” (Nucleic Acids Research, 2015).

Key:
Assay in all cases: EMSA
[1] = tested on: LSm2-LSm8 complex;Snu13 (Saccharomyces cerevisiae;Saccharomyces cerevisiae); conditions: LSm titrated; Snu13 prebound; apparent; Hill 3.3; EMSA: 2 nM RNA, 10 mM K-HEPES pH 7.5, 100 mM KCl, 0.01% NP-40, 20 ug E. coli tRNA in 100 ul, on ice 60 min, 4% native gel 0.5X TBE 4 C; smFRET: 10 mM Tris-HCl …
[2] = tested on: LSm2-LSm8 complex;Snu13;Prp31 (Saccharomyces cerevisiae;Saccharomyces cerevisiae;Saccharomyces cerevisiae); conditions: LSm titrated; Snu13, Prp31 prebound; apparent; Hill 1; EMSA: 2 nM RNA, 10 mM K-HEPES pH 7.5, 100 mM KCl, 0.01% NP-40, 20 ug E. coli tRNA in 100 ul, on ice 60 min, 4% native gel 0.5X TBE 4 C; smFRET: 10 mM Tris-HCl …
[3] = tested on: LSm2-LSm8 complex;Snu13;Prp31;Sm protein complex (SmB, D1, D2, D3, E, F, G) (Saccharomyces cerevisiae;Saccharomyces cerevisiae;Saccharomyces cerevisiae;Saccharomyces cerevisiae); conditions: LSm titrated; Snu13, Prp31, Sm prebound; apparent; Hill 1; text prints 152; EMSA: 2 nM RNA, 10 mM K-HEPES pH 7.5, 100 mM KCl, 0.01% NP-40, 20 ug E. coli tRNA in 100 ul, on ice 60 min, 4% native gel 0.5X TBE 4 C; smFRET: 10 mM Tris-HCl …
[4] = tested on: Prp3/4 (Prp3-Prp4 complex);Snu13 (Saccharomyces cerevisiae;Saccharomyces cerevisiae); conditions: Prp3/4 titrated; Snu13 prebound; apparent; Hill 3.4; EMSA: 2 nM RNA, 10 mM K-HEPES pH 7.5, 100 mM KCl, 0.01% NP-40, 20 ug E. coli tRNA in 100 ul, on ice 60 min, 4% native gel 0.5X TBE 4 C; smFRET: 10 mM Tris-HCl …
[5] = tested on: Prp3/4 (Prp3-Prp4 complex);Snu13;Prp31 (Saccharomyces cerevisiae;Saccharomyces cerevisiae;Saccharomyces cerevisiae); conditions: Prp3/4 titrated; Snu13, Prp31 prebound; apparent; Hill 1.5; EMSA: 2 nM RNA, 10 mM K-HEPES pH 7.5, 100 mM KCl, 0.01% NP-40, 20 ug E. coli tRNA in 100 ul, on ice 60 min, 4% native gel 0.5X TBE 4 C; smFRET: 10 mM Tris-HCl …
[6] = tested on: Prp3/4 (Prp3-Prp4 complex);Snu13;Prp31;Sm protein complex (SmB, D1, D2, D3, E, F, G) (Saccharomyces cerevisiae;Saccharomyces cerevisiae;Saccharomyces cerevisiae;Saccharomyces cerevisiae); conditions: Prp3/4 titrated; Snu13, Prp31, Sm prebound; apparent; Hill 1; EMSA: 2 nM RNA, 10 mM K-HEPES pH 7.5, 100 mM KCl, 0.01% NP-40, 20 ug E. coli tRNA in 100 ul, on ice 60 min, 4% native gel 0.5X TBE 4 C; smFRET: 10 mM Tris-HCl …
[7] = tested on: Prp3/4 (Prp3-Prp4 complex);Snu13;Prp31;Sm protein complex (SmB, D1, D2, D3, E, F, G);LSm2-LSm8 complex (Saccharomyces cerevisiae;Saccharomyces cerevisiae;Saccharomyces cerevisiae;Saccharomyces cerevisiae;Saccharomyces cerevisiae); conditions: EMSA: 2 nM RNA, 10 mM K-HEPES pH 7.5, 100 mM KCl, 0.01% NP-40, 20 ug E. coli tRNA in 100 ul, on ice 60 min, 4% native gel 0.5X TBE 4 C; smFRET: 10 mM Tris-HCl …
[8] = tested on: Prp31;Snu13 (Saccharomyces cerevisiae;Saccharomyces cerevisiae); conditions: Prp31 titrated; Snu13 prebound; apparent; Hill 2.9; EMSA: 2 nM RNA, 10 mM K-HEPES pH 7.5, 100 mM KCl, 0.01% NP-40, 20 ug E. coli tRNA in 100 ul, on ice 60 min, 4% native gel 0.5X TBE 4 C; smFRET: 10 mM Tris-HCl …
[9] = tested on: Sm protein complex (SmB, D1, D2, D3, E, F, G);Snu13 (Saccharomyces cerevisiae;Saccharomyces cerevisiae); conditions: Sm titrated; Snu13 prebound; apparent; Hill 2.2; EMSA: 2 nM RNA, 10 mM K-HEPES pH 7.5, 100 mM KCl, 0.01% NP-40, 20 ug E. coli tRNA in 100 ul, on ice 60 min, 4% native gel 0.5X TBE 4 C; smFRET: 10 mM Tris-HCl …
[10] = tested on: Sm protein complex (SmB, D1, D2, D3, E, F, G);Snu13;Prp31 (Saccharomyces cerevisiae;Saccharomyces cerevisiae;Saccharomyces cerevisiae); conditions: Sm titrated; Snu13, Prp31 prebound; apparent; Hill 2.3; EMSA: 2 nM RNA, 10 mM K-HEPES pH 7.5, 100 mM KCl, 0.01% NP-40, 20 ug E. coli tRNA in 100 ul, on ice 60 min, 4% native gel 0.5X TBE 4 C; smFRET: 10 mM Tris-HCl …

U4/U6 snRNA duplex (full length)
Kd [1]: 26 nM | Kd [2]: 98 nM | Kd [3]: 154 nM | Kd [4]: 88 nM | Kd [5]: 417 nM | Kd [6]: 557 nM | Kd [7]: 20 nM | Kd [8]: 50 nM | Kd [9]: 92 nM | Kd [10]: 108 nM
